# Assay results from patent US8389575B2, “Control of enzymatic peracid generation” (E.I. du Pont de Nemours and Company, priority 2008, dated 2013).
# B1: B. pumilus PS213: acetyl xylan esterase with perhydrolase activity from Bacillus pumilus PS213 (SEQ ID NO: 10), cell extract of E. coli KLP18/pSW195 (protein, listed as Bacillus pumilis)
# chain: MQLFDLSLEELKKYKPKKTARPDFSDFWKKSLEELRQVEAEPTLESYDYPVKGVKVYRLTYQSFGHSKIEGFYAVPDQTGPHPALVRFHGYNASYDGGIHDIVNWALHGYATFGMLVRGQGGSEDTSVTPGGHALGWMTKGILSKDTYYYRGVYLDAVRALEVIQSFPEVDEHRIGVIGGSQGGALAIAAAALSDIPKVVVADYPYLSNFERAVDVALEQPYLEINSYFRRNSDPKVEEKAFETLSYFDLINLAGWVKQPTLMAIGLIDKITPPSTVFAAYNHLETDKDLKVYRYFGHEFIPAFQTEKLSFLQKHLLLST
# Tests used:
# [1] = Dependence of specific activity on pH for hydrolysis of triacetin by CE-7 esterases/perhydrolases (cell extracts of E. coli KLP18 transformants); assay type: biochemical; details: 200 mM triacetin, 25° C.
# Method: A cell extract of an E. coli transformant expressing perhydrolase from Thermotoga neapolitana (KLP18/pSW196), Thermotoga maritima MSB8 (KLP18/pSW207), Bacillus pumilus PS213 (KLP1S/pSW195), Bacillus subtilis BE1010 (KLP18/pSW189), Bacillus subtilis ATCC® 31954™ (KLP18/pSW194), or Bacillus licheniformis ATCC® 14580™ (KLP18/pSW191) was prepared by passing a suspension of cell paste (20 wt % wet cell weight) in 0.05 M potassium phosphate buffer (pH 7.0) containing dithiothreitol (1 mM) twice through a French press having a working pressure of 16,000 psi (˜110 MPa). The crude extract was then centrifuged at 20,000×g to remove cellular debris, producing a clarified cell extract that was assayed for total soluble protein (Bicinchoninic Acid Kit for Protein Determination, Sigma Aldrich catalog #BCA1-KT). A portion of the clarified Thermotoga maritima MSB8 or Thermotoga neapolitana perhydrolase-containing extract was additionally heated for 20 min at 75° C., followed immediately by cooling in an ice/water bath to 5° C. The resulting mixture was centrifuged to remove precipitated protein, and the supernatant collected and assayed for total soluble protein as before.
# Reactions (10 mL total volume) containing triacetin (200 mM) and cell extract supernatant (prepared as described above) were run at 25° C. and at a pH between 4.5 and 10.0, using the buffers and buffer concentrations listed in Table 5. The concentration of extract total protein (with or without heat-treatment to denature and precipitate E. coli-derived protein) was chosen to produce an ca. 50 mM decrease in triacetin concentration over 30 min (typically from 0.025 mg/mL to 0.40 mg/mL of total extract protein, dependent on the perhydrolase). A control reaction for each reaction condition was run to determine the concentration of triacetin hydrolyzed in the absence of added extract protein. Samples (100 μL) were removed at predetermined times and immediately added to 297 μL of dd H2O and 3 μL of 6N HCL. The resulting solution was mixed, then filtered using a 30,000 NMWL filter (Millipore) using a microcentrifuge for 2 min at 12,000 rpm. An aliquot of the filtrate (100 μL) was added to 150 μL of 0.417 mM N,N-diethyl meta-toluamide (external standard) in acetonitrile, and the resulting solution analyzed for triacetin by HPLC using a Supelco Discovery C8 column (25 cm×4.0 mm, 5 um; Supelco #59353-U40) and an isocratic mobile phase of 40% acetonitrile/60% distilled water at a flow rate of 1 mL/min. Triacetin was measured by UV detection at 225 nm.
# [2] = Peracetic acid production by perhydrolases, control by initial reaction pH in sodium citrate buffer; assay type: biochemical; details: triacetin 100 mM, 0.050 mg/mL extract total protein, 25° C.
# Method: A cell extract of a transformant expressing perhydrolase from Bacillus pumilus PS213 (KLP18/pSW195), Thermotoga maritima MSB8 (KLP18/pSW207), Thermotoga neapolitana (KLP18/pSW196), or Bacillus subtilis ATCC® 31954™ (KLP18/pSW194) was prepared by passing a suspension of cell paste (20 wt % wet cell weight) in 0.05 M potassium phosphate buffer (pH 7.0) containing dithiothreitol (1 mM) twice through a French press having a working pressure of 16,000 psi (˜110 MPa). The crude extract was then centrifuged at 20,000×g to remove cellular debris, producing a clarified cell extract that was assayed for total soluble protein (Bicinchoninic Acid Kit for Protein Determination, Sigma Aldrich catalog #BCA1-KT). The supernatant was frozen in dry ice and stored at −80° C.
# Reactions (10 mL total volume) containing triacetin, hydrogen peroxide and centrifuged cell extract supernatant (prepared as described above) in 50 mM sodium citrate buffer (initial pH 7.2 or 6.5) were run at 25° C. A control reaction for each reaction condition was run to determine the concentration of peracetic acid produced by chemical perhydrolysis of triacetin by hydrogen peroxide in the absence of added extract protein (data not shown). Determination of the concentration of peracetic acid in the reaction mixtures was performed according to the method described by Karst et al., supra.
# [3] = initial pH 6.5, sodium citrate 50 mM, H2O2 100 mM
# [4] = initial pH 6.5, sodium citrate 50 mM, H2O2 250 mM
# [5] = initial pH 7.2, sodium citrate 50 mM, H2O2 100 mM
# [6] = initial pH 7.2, sodium citrate 50 mM, H2O2 250 mM
molecule,measurement,setting,value
B1,specific activity (mmol triacetin/min/mg total extract protein),"[1]; pH 5.0, sodium acetate 0.15 M",1.8 mmol triacetin/min/mg total extract protein
same,specific activity (mmol triacetin/min/mg total extract protein),"[1]; pH 5.5, sodium acetate 0.15 M",3.5 mmol triacetin/min/mg total extract protein
same,specific activity (mmol triacetin/min/mg total extract protein),"[1]; pH 6.0, sodium citrate 0.15 M",4.2 mmol triacetin/min/mg total extract protein
same,specific activity (mmol triacetin/min/mg total extract protein),"[1]; pH 6.5, sodium citrate 0.15 M",11.6 mmol triacetin/min/mg total extract protein
same,specific activity (mmol triacetin/min/mg total extract protein),"[1]; pH 7.0, potassium phosphate 0.15 M",30.5 mmol triacetin/min/mg total extract protein
same,specific activity (mmol triacetin/min/mg total extract protein),"[1]; pH 7.5, potassium phosphate 0.15 M",33.7 mmol triacetin/min/mg total extract protein
same,specific activity (mmol triacetin/min/mg total extract protein),"[1]; pH 8.0, potassium phosphate 0.20 M",53.9 mmol triacetin/min/mg total extract protein
same,specific activity (mmol triacetin/min/mg total extract protein),"[1]; pH 8.5, Tris(hydroxymethyl)aminomethane 0.20 M",72.4 mmol triacetin/min/mg total extract protein
same,specific activity (mmol triacetin/min/mg total extract protein),"[1]; pH 9.0, Tris(hydroxymethyl)aminomethane 0.20 M",80.4 mmol triacetin/min/mg total extract protein
same,specific activity (mmol triacetin/min/mg total extract protein),"[1]; pH 9.5, glycine 0.20 M",71.1 mmol triacetin/min/mg total extract protein
same,"PAA, 1 min (ppm)",[2]; [3],170 ppm
same,"PAA, 5 min (ppm)",[2]; [3],310 ppm
same,"PAA, 30 min (ppm)",[2]; [3],830 ppm
same,"PAA, 1 min (ppm)",[2]; [4],281 ppm
same,"PAA, 5 min (ppm)",[2]; [4],652 ppm
same,"PAA, 30 min (ppm)",[2]; [4],1984 ppm
same,"PAA, 1 min (ppm)",[2]; [5],160 ppm
same,"PAA, 5 min (ppm)",[2]; [5],322 ppm
same,"PAA, 30 min (ppm)",[2]; [5],1010 ppm
same,"PAA, 1 min (ppm)",[2]; [6],465 ppm
same,"PAA, 5 min (ppm)",[2]; [6],1170 ppm
same,"PAA, 30 min (ppm)",[2]; [6],2525 ppm
